Experimental data as given in patent publication US20260167731A1 (DOMAIN THERAPEUTICS, published 2026).
Changes are numbered by the printed parent chain. “And” between values parts separate entries of the source, which are not always exact repeats. Equal entries are not always repeated.

B1: anti-CCR8 mAb 2-6 (antibody, V domains shown)
VH: QVQLKESGPGLVAPSQSLSITCTVSGLSMNDYVVTWIRQPPGKGLEWLGVIWGGGNTYYNSDLKSRLSITKDNSKSQVFFKMSSLQTDDTAVYYCARRHRDYALDYWGQGISVTVSS
VL: ENVLTQSPAIMSASPGEKVTMTCRASSSVSSSYLHWYQQKSGASPKLWIYSTSNLASGVPARFSGSGSGTSYSLTISSVEAEDAATYYCQQYSGYPYTFGGGTKLEIK
B2: anti-CCR8 mAb 2-9 (antibody, V domains shown)
VH: QVQLQQPGSELVRPGASVKLSCKASGYTFTSYWMHWVKQRPGQGLEWIGNIWPGSASTNYDEKFKNKATLTVDTSSSTAYMQLSSLTSEDSAVYYCIRGGKGAMDYWSQGTSVTVSS
VL: DVVMTQIPLSLPVSLGDQASISCRSSQSLENSYGNTYLNWYLQKPGQSPQLLIYRVSNRFSGVLDRFSGSGSGTDFTLKISRVEAEDLGVYFCLQVTHVPPTFGAGTKLELK
B3: anti-CCR8 mAb 2-5 (antibody, V domains shown)
VH: EVQLQQSGPELVKPGASVKISCKTSGYTFTEYTIHWVKQSHGKSLEWVGGINPDNGNTRYDQKFKGKATLTIDKSSSTAYMELRSLTSEDSAVYYCARVARSSGSGPYAMDYWGQGTSVTVSS
VL: DVVMTQTPLSLPVSLGDQASISCRCTQSLLHTNGDTYLHWYLQKPGQSPKLLIYKVSNRFSGVPDRFSGSGSGTDFTLKISRVEAEDLGVYFCSQSTHVPYTFGGGTKLEIK
B4: anti-CCR8 mAb 2-7 (antibody, V domains shown)
VH: QVQLKESGPGLVAPSQSLSITCTVSGFSLTDYRVSWIRQPPGKGLEWLGVIWGGRSTYYNSALKSRLSISKDNSKSQVFLKMNSLQTDDTAMYYCAKQGDGYYALDYWGQGTSVTVSS
VL: B3 VL with C25S, T26S, L30V, T32S, N33Y, D35N, S68H, Y101P
B5: anti-CCR8 mAb 2-3 (antibody, V domains shown)
VH: EVQLQQSGPELLKPGTSVKISCTTSGYTFSDYTLHWVKQSHGKSLEWIGGITPKNGDTRYDPRFKDKATLTIDKSSSAAYMELRSLTSEDSAVYYCARVARFYGVSPYAMDYWGQGASVTVSS
VL: B3 VL with T32S, K79E, S81T, S96T
B6: anti-CCR8 mAb 2-8 (antibody, V domains shown)
VH: QVQLKESGPGLVAPSQSLSITCTVSGFSLTDYGVSWIRQPPGKGPEWLGVIWGGGNTYYNSVLKSRLSISNDNSKSQVFLRMNSLQTADTAIYYCARPRRDYYALDYWGQGTSVTVAS
VL: B3 VL with C25S, T26S, L30V, H31Y, D35N, Y37F, Y101P

Target: T1, human CCR8 (human, UniProt P51685 1-355)
Test: cell-based or functional assay

Binder | IC50, CCL1 induced hCCR8 Gi2 signaling (BRET, HEK-293)
B1 | 0.106 µg/mL and 0.706 nM
B2 | 0.026 µg/mL and 0.172 nM
B3 | 0.044 µg/mL and 0.291 nM
B4 | 0.552 µg/mL and 3.68 nM
B5 | 0.049 µg/mL and 0.328 nM
B6 | 0.712 µg/mL and 4.75 nM

Target: T1, human CCR8
Test: cell-based or functional assay
Remark: another data set of the same source

Binder | hCCL1 (100 nM) residual response in %, Protocol #2, mAb 0.08 µg/mL (0.53 nM) | hCCL1 (100 nM) residual response in %, Protocol #2, mAb 0.4 µg/mL (2.67 nM) | hCCL1 (100 nM) residual response in %, Protocol #2, mAb 10 µg/mL (66.7 nM) | hCCL1 (100 nM) residual response in %, Protocol #3, mAb 0.05 µg/mL (0.33 nM) | hCCL1 (100 nM) residual response in %, Protocol #3, mAb 0.5 µg/mL (3.33 nM) | hCCL1 (100 nM) residual response in %, Protocol #3, mAb 5 µg/mL (33.3 nM)
B2 | 99% | 83% | 56% | 116% | 90% | 45%
B5 | 79% | 38% | 17% | 102% | 64% | 47%

Target: T1, human CCR8
Test: cell-based or functional assay
Remark: another data set of the same source

Binder | IC50, CCL1 induced hCCR8 Gi2 signaling (BRET) at pH 6.5 | IC50, CCL1 induced hCCR8 Gi2 signaling (BRET) at pH 7.4
B4 | 0.516 µg/ml and 3.44 nM | 0.82 µg/ml and 5.47 nM
B5 | 0.044 µg/ml and 0.292 nM | 0.061 µg/ml and 0.405 nM
B6 | 0.578 µg/ml and 3.85 nM | 0.812 µg/ml and 5.41 nM

Target: T1, human CCR8
Test: flow cytometry, hCCR8 transfected CHOK1 cells
Experimental: The same staining protocol was applied on human CCR8 transfected CHO cell line versus wild type CHO cell line, cutaneous T cell lymphoma HUT78 cell line and human activated T cell model.
Briefly, 1·10⁵ cells per well in a 96 well plate were incubated with a dilution of unconjugated anti-CCR8 mAb at 10 μg/mL then diluted at 1/3.33, 4 dilution points (during 30 min at 4° C.). In human activated T cells model, prior to mAb incubation, cells were first incubated with 200 nM of hCCL1 (R&D Systems, Minneapolis, MN, USA) or buffer PBS (Invitrogen by Thermofisher Scientific, Illkirch-Graffenstaden, France) supplemented by 2% Fetal Bovine Serum (Invitrogen by Thermofisher Scientific, Illkirch-Graffenstaden, France) and 2 mM EDTA (Invitrogen by Thermofisher Scientific, Illkirch-Graffenstaden, France) during 1 hour at 4° C. To determine EC50 value, 8 concentrations of anti-CCR8 mAb were tested. Unbound antibodies were washed away with PBS (Invitrogen by Thermofisher Scientific, Illkirch-Graffenstaden, France) supplemented by 2% Fetal Bovine Serum (Invitrogen by Thermofisher Scientific, Illkirch-Graffenstaden, France) and 2 mM EDTA (Invitrogen by Thermofisher Scientific, Illkirch-Graffenstaden, France). Subsequently, cells are centrifuged (5 min at 400 g) and bound antibody is detected with F(ab′)₂-Goat anti-Mouse IgG (H+L) Cross-Adsorbed Secondary Antibody, Alexa Fluor 488 (dilution 1/500) (Invitrogen by Thermofisher Scientific, Illkirch-Graffenstaden, France) or with F(ab′)₂-Goat anti-Human IgG Fc Secondary Antibody, PE (Invitrogen by Thermofisher Scientific, Illkirch-Graffenstaden, France) (dilution 1/1000) at 4° C. for 30 min. Detection reagent is washed away and cells are centrifuged (5 min at 400 g) and resuspended in 30 μL PBS. Bound detection antibody is quantified on a MacsQuant16 (Miltenyi, Gladbach, Germany) (B1 or B2 channel, 5000 events per acquisition). During the experiment, the respective isotype mAb controls (mouse IgG1, mouse IgG2a, mouse IgG2b, mouse IgG3 or human IgG1) (Biolegend, Amsterdam, The Netherlands) are included to exclude any unspecific binding events.

Binder | % positive cells | MFI fold change to isotype ctrl
B1 | 69.9% | 5.81 fold
B2 | 81.6% | 9.92 fold
B3 | 73.7% | 10.3 fold
B4 | 57.7% | 3.84 fold
B5 | 81.1% | 10.7 fold
B6 | 78.9% | 6.36 fold

Target: pm5, modified CCR8 related peptide (human, sulfated tyrosines at Y15 and Y17)
Sequence (peptide, as listed by the source): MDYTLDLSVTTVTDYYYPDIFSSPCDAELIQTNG
Test: ELISA on coated CCR8 peptide (500 ng/mL), OD [cont.]
Experimental: (§1) The specific binding properties of antibodies were evaluated by ELISA with coated CCR8 related peptides (500 ng/mL) in carbonate/bicarbonate buffer. Different peptides were used as described in Table 1 (see Example 1). Each anti-CCR8 mAb was tested at 1 μg/mL then diluted at 1/10. After an incubation at room temperature during 90 min, unbound mAbs were removed by washings. […] After washings, 3,3′,5,5′-tetramethylbenzidine (TMB) (Interchim, Montlugon, France) was added for 15 min. Then the optical density (OD) was determined by using a multiplate reader (Tecan, Lyon, France) and correlated with mAb reactivity on the panel of coated peptides.

Binder | binding result
B1 | binds
B3 | binds
B4 | binds
B5 | binds
B6 | binds

Target: pm6, modified CCR8 related peptide (human, sulfated tyrosines at Y16 and Y17)
Sequence (peptide, as listed by the source): as above
Test: as above
Experimental: as §1

Binder | binding result
B1 | binds
B3 | binds
B4 | binds
B5 | binds
B6 | binds

Target: pm8, modified CCR8 related peptide (human, sulfated tyrosines at Y15, Y16 and Y17)
Sequence (peptide, as listed by the source): as above
Test: as above
Experimental: as §1

Binder | binding result
B1 | binds
B3 | binds
B4 | binds
B5 | binds
B6 | binds

Target: T2, pwt1, unmodified CCR8 related peptide (human, none (non-sulfated Y15, Y16, Y17))
T2 construct: First 34 amino acids of human CCR8, synthetic; also called unmodified peptide
T2 sequence (peptide, as listed by the source): as above
Test: as above
Experimental: as §1

Binder | binding result
B1 | binds
B3 | binds
B4 | binds
B5 | binds
B6 | binds

Target: pm1, modified CCR8 related peptide (human, sulfated tyrosine at Y15)
Sequence (peptide, as listed by the source): as above
Test: as above
Experimental: as §1

Binder | binding result
B1 | binds
B3 | binds
B4 | binds
B5 | binds
B6 | binds

Target: pm2, modified CCR8 related peptide (human, sulfated tyrosine at Y16)
Sequence (peptide, as listed by the source): as above
Test: as above
Experimental: as §1

Binder | binding result
B1 | binds
B3 | binds
B4 | binds
B5 | binds
B6 | binds

Target: pm3, modified CCR8 related peptide (human, sulfated tyrosine at Y17)
Sequence (peptide, as listed by the source): as above
Test: as above
Experimental: as §1

Binder | binding result
B1 | binds
B3 | binds
B4 | binds
B5 | binds
B6 | binds

Target: pm4, modified CCR8 related peptide (human, sulfated tyrosines at Y15 and Y16)
Sequence (peptide, as listed by the source): as above
Test: as above
Experimental: as §1

Binder | binding result
B1 | binds
B3 | binds
B4 | binds
B5 | binds
B6 | binds

Target: T1, human CCR8
Test: flow cytometry, inhibition of hCCL1-AF647 binding to hCCR8 CHO cells
Experimental: The hCCR8 transfected CHO cell line was dispatched at a density of 1·10⁵ per well in a 96-well plate. Cells were incubated for 30 min at 4° C. with or without anti-CCR8 mAb tested at 10 μg/mL then diluted at 1/3. Unbound antibodies were washed away with PBS (Gibco, Villebon-sur-Yvette, France) supplemented by 2% Fetal Bovine Serum (Invitrogen by Thermofisher Scientific, Illkirch-Graffenstaden, France) and 2 mM EDTA. […] After washing unbound ligands, CCL1 bound detection is quantified on a MacsQuant16 (Miltenyi, Gladbach, Germany) (R1 channel, 5 000 events per acquisition).
For IC₅₀ determination, a concentration response curve is performed using 8 concentrations of mAb. Curves are fitted and IC₅₀ of CCL1 binding blocking activity is calculated using the sigmoidal dose-response (variable slope) model on GraphPad Prism 9 (GraphPad Software, San Diego, CA, USA).

Binder | IC50
B1 | 1.25 µg/mL and 8.34 nM
B2 | 1.18 µg/mL and 7.92 nM
B3 | 1.15 µg/mL and 7.73 nM
B4 | 2.73 µg/mL and 18.3 nM
B5 | 1.3 µg/mL and 8.71 nM
B6 | 2.22 µg/mL and 14.8 nM
